Assay results: the supplement of paper PMC5998384

Tests used:
HeLa Kyoto [1] = assay: solubility in G1/S (NP-40 vs SDS abundance) (log2 ratio); higher = more soluble; settings: cell cycle stage: G1/S
HeLa Kyoto [2] = assay: solubility change mitosis vs G1/S (difference of NP-40 vs SDS log2 ratios) (log2 ratio difference); higher = more soluble in mitosis
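Wherever solubility change mitosis vs G1/S (difference of NP-40 vs SDS log2 ratios) is given: synchronized HeLa Kyoto cells (double thymidine block for G1/S, nocodazole release for mitosis), protein amounts in NP-40 versus SDS lysates quantified by mass spectrometry, three biological replicates.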
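Wherever solubility in G1/S (NP-40 vs SDS abundance) is given: HeLa Kyoto cells arrested at G1/S by double thymidine block, proteins quantified by TMT10plex mass spectrometry in mild NP-40 versus SDS extracts, three biological replicates.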

MSTEADEGITFSVPPFAPSGFCTIPEGGICRRGGAAAVGEGEEHQLPPPPPGSFWNVESAAAPGIGCPAATSSSSATRGRGSSVGGGSRRTTVAYVINEASQGQLVVAESEALQSLREACETVGATLETLHFGKLDFGETTVLDRFYNADIAVVEMSDAFRQPSLFYHLGVRESFSMANNIILYCDTNSDSLQSLKEIICQKNTMCTGNYTFVPYMITPHNKVYCCDSSFMKGLTELMQPNFELLLGPICLPLVDRFIQLLKVAQASSSQYFRESILNDIRKARNLYTGKELAAELARIRQRVDNIEVLTADIVINLLLSYRDIQDYDSIVKLVETLEKLPTFDLASHHHVKFHYAFALNRRNLPGDRAKALDIMIPMVQSEGQVASDMYCLVGRIYKDMFLDSNFTDTESRDHGASWFKKAFESEPTLQSGINYAVLLLAAGHQFESSFELRKVGVKLSSLLGKKGNLEKLQSYWEVGFFLGASVLANDHMRVIQASEKLFKLKTPAWYLKSIVETILIYKHFVKLTTEQPVAKQELVDFWMDFLVEATKTDVTVVRFPVLILEPTKIYQPSYLSINNEVEEKTISIWHVLPDDKKGIHEWNFSASSVRGVSISKFEERCCFLYVLHNSDDFQIYFCTELHCKKFFEMVNTITEEKGRSTEEGDCESDLLEYDYEYDENGDRVVLGKGTYGIVYAGRDLSNQVRIAIKEIPERDSRYSQPLHEEIALHKHLKHKNIVQYLGSFSENGFIKIFMEQVPGGSLSALLRSKWGPLKDNEQTIGFYTKQILEGLKYLHDNQIVHRDIKGDNVLINTYSGVLKISDFGTSKRLAGINPCTETFTGTLQYMAPEIIDKGPRGYGKAADIWSLGCTIIEMATGKPPFYELGEPQAAMFKVGMFKVHPEIPESMSAEAKAFILKCFEPDPDKRACANDLLVDEFLKVSSKKKKTQPKLSALSAGSNEYLRSISLPVPVLVEDTSSSSEYGSVSPDTELKVDPFSFKTRAKSCGERDVKGIRTLFLGIPDENFEDHSAPPSPEEKDSGFFMLRKDSERRATLHRILTEDQDKIVRNLMESLAQGAEEPKLKWEHITTLIASLREFVRSTDRKIIATTLSKLKLELDFDSHGISQVQVVLFGFQDAVNKVLRNHNIKPHWMFALDSIIRKAVQTAITILVPELRPHFSLASESDTADQEDLDVEDDHEEQPSNQTVRRPQAVIEDAVATSGVSTLSSTVSHDSQSAHRSLNVQLGRMKIETNRLLEELVRKEKELQALLHRAIEEKDQEIKHLKLKSQPIEIPELPVFHLNSSGTNTEDSELTDWLRVNGADEDTISRFLAEDYTLLDVLYYVTRDDLKCLRLRGGMLCTLWKAIIDFRNKQT [MAP3K5]
solubility in G1/S (log2) (HeLa Kyoto [1]): -1.04
solubility change mitosis (log2) (HeLa Kyoto [2]): 0.654

MSVSARSAAAEERSVNSSTMVAQQKNLEGYVGFANLPNQVYRKSVKRGFEFTLMVVGESGLGKSTLINSLFLTDLYSPEYPGPSHRIKKTVQVEQSKVLIKEGGVQLLLTIVDTPGFGDAVDNSNCWQPVIDYIDSKFEDYLNAESRVNRRQMPDNRVQCCLYFIAPSGHGLKPLDIEFMKRLHEKVNIIPLIAKADTLTPEECQQFKKQIMKEIQEHKIKIYEFPETDDEEENKLVKKIKDRLPLAVVGSNTIIEVNGKRVRGRQYPWGVAEVENGEHCDFTILRNMLIRTHMQDLKDVTNNVHYENYRSRKLAAVTYNGVDNNKNKGQLTKSPLAQMEEERREHVAKMKKMEMEMEQVFEMKVKEKVQKLKDSEAELQRRHEQMKKNLEAQHKELEEKRRQFEDEKANWEAQQRILEQQNSSRTLEKNKKKGKIF [SEPT7]
solubility in G1/S (log2) (HeLa Kyoto [1]): 0.245
solubility change mitosis (log2) (HeLa Kyoto [2]): 0.00373

MSWLFPLTKSASSSAAGSPGGLTSLQQQKQRLIESLRNSHSSIAEIQKDVEYRLPFTINNLTININILLPPQFPQEKPVISVYPPIRHHLMDKQGVYVTSPLVNNFTMHSDLGKIIQSLLDEFWKNPPVLAPTSTAFPYLYSNPSGMSPYASQGFPFLPPYPPQEANRSITSLSVADTVSSSTTSHTTAKPAAPSFGVLSNLPLPIPTVDASIPTSQNGFGYKMPDVPDAFPELSELSVSQLTDMNEQEEVLLEQFLTLPQLKQIITDKDDLVKSIEELARKNLLLEPSLEAKRQTVLDKYELLTQMKSTFEKKMQRQHELSESCSASALQARLKVAAHEAEEESDNIAEDFLEGKMEIDDFLSSFMEKRTICHCRRAKEEKLQQAIAMHSQFHAPL [VPS37A]
solubility in G1/S (log2) (HeLa Kyoto [1]): 0.656
solubility change mitosis (log2) (HeLa Kyoto [2]): -0.0301

MSYVFVNDSSQTNVPLLQACIDGDFNYSKRLLESGFDPNIRDSRGRTGLHLAAARGNVDICQLLHKFGADLLATDYQGNTALHLCGHVDTIQFLVSNGLKIDICNHQGATPLVLAKRRGVNKDVIRLLESLEEQEVKGFNRGTHSKLETMQTAESESAMESHSLLNPNLQQGEGVLSSFRTTWQEFVEDLGFWRVLLLIFVIALLSLGIAYYVSGVLPFVENQPELVH [ANKRD46]
solubility in G1/S (log2) (HeLa Kyoto [1]): 0.237
solubility change mitosis (log2) (HeLa Kyoto [2]): 0.136

MTAVNVALIRDTKWLTLEVCREFQRGTCSRADADCKFAHPPRVCHVENGRVVACFDSLKGRCTRENCKYLHPPPHLKTQLEINGRNNLIQQKTAAAMFAQQMQLMLQNAQMSSLGSFPMTPSIPANPPMAFNPYIPHPGMGLVPAELVPNTPVLIPGNPPLAMPGAVGPKLMRSDKLEVCREFQRGNCTRGENDCRYAHPTDASMIEASDNTVTICMDYIKGRCSREKCKYFHPPAHLQARLKAAHHQMNHSAASAMALQPGTLQLIPKRSALEKPNGATPVFNPTVFHCQQALTNLQLPQPAFIPAGPILCMAPASNIVPMMHGATPTTVSAATTPATSVPFAAPTTGNQLKF [MBNL3]
solubility in G1/S (log2) (HeLa Kyoto [1]): 0.0798
solubility change mitosis (log2) (HeLa Kyoto [2]): 0.156

MTEESEETVLYIEHRYVCSECNQLYGSLEEVLMHQNSHVPQQHFELVGVADPGVTVATDTASGTGLYQTLVQESQYQCLECGQLLMSPSQLLEHQELHLKMMAPQEAVPAEPSPKAPPLSSSTIHYECVDCKALFASQELWLNHRQTHLRATPTKAPAPVVLGSPVVLGPPVGQARVAVEHSYRKAEEGGEGATVPSAAATTTEVVTEVELLLYKCSECSQLFQLPADFLEHQATHFPAPVPESQEPALQQEVQASSPAEVPVSQPDPLPASDHSYELRNGEAIGRDRRGRRARRNNSGEAGGAATQELFCSACDQLFLSPHQLQQHLRSHREGVFKCPLCSRVFPSPSSLDQHLGDHSSESHFLCVDCGLAFGTEALLLAHRRAHTPNPLHSCPCGKTFVNLTKFLYHRRTHGVGGVPLPTTPVPPEEPVIGFPEPAPAETGEPEAPEPPVSEETSAGPAAPGTYRCLLCSREFGKALQLTRHQRFVHRLERRHKCSICGKMFKKKSHVRNHLRTHTGERPFPCPDCSKPFNSPANLARHRLTHTGERPYRCGDCGKAFTQSSTLRQHRLVHAQHFPYRCQECGVRFHRPYRLLMHRYHHTGEYPYKCRECPRSFLLRRLLEVHQLVVHAGRQPHRCPSCGAAFPSSLRLREHRCAAAAAQAPRRFECGTCGKKVGSAARLQAHEAAHAAAGPGEVLAKEPPAPRAPRATRAPVASPAALGSTATASPAAPARRRGLECSECKKLFSTETSLQVHRRIHTGERPYPCPDCGKAFRQSTHLKDHRRLHTGERPFACEVCGKAFAISMRLAEHRRIHTGERPYSCPDCGKSYRSFSNLWKHRKTHQQQHQAAVRQQLAEAEAAVGLAVMETAVEALPLVEAIEIYPLAEAEGVQISG [ZNF574]
solubility in G1/S (log2) (HeLa Kyoto [1]): -0.386
solubility change mitosis (log2) (HeLa Kyoto [2]): 0.212

MTSAVVDSGGTILELSSNGVENQEESEKVSEYPAVIVEPVPSARLEQGYAAQVLVYDDETYMMQDVAEEQEVETENVETVEASVHSSNAHCTDKTIEAAEALLHMESPTCLRDSRSPVEVFVPPCVSTPEFIHAAMRPDVITETVVEVSTEESEPMDTSPIPTSPDSHEPMKKKKVGRKPKTQQSPISNGSPELGIKKKPREGKGNTTYLWEFLLDLLQDKNTCPRYIKWTQREKGIFKLVDSKAVSKLWGKHKNKPDMNYETMGRALRYYYQRGILAKVEGQRLVYQFKDMPKNIVVIDDDKSETCNEDLAGTTDEKSLERVSLSAESLLKAASSVRSGKNSSPINCSRAEKGVARVVNITSPGHDASSRSPTTTASVSATAAPRTVRVAMQVPVVMTSLGQKISTVAVQSVNAGAPLITSTSPTTATSPKVVIQTIPTVMPASTENGDKITMQPAKIITIPATQLAQCQLQTKSNLTGSGSINIVGTPLAVRALTPVSIAHGTPVMRLSMPTQQASGQTPPRVISAVIKGPEVKSEAVAKKQEHDVKTLQLVEEKPADGNKTVTHVVVVSAPSAIALPVTMKTEGLVTCEK [ELF2]
solubility in G1/S (log2) (HeLa Kyoto [1]): 0.284
solubility change mitosis (log2) (HeLa Kyoto [2]): 0.0877

MTSPSPRIQIISTDSAVASPQRIQIVTDQQTGQKIQIVTAVDASGSPKQQFILTSPDGAGTGKVILASPETSSAKQLIFTTSDNLVPGRIQIVTDSASVERLLGKTDVQRPQVVEYCVVCGDKASGRHYGAVSCEGCKGFFKRSVRKNLTYSCRSNQDCIINKHHRNRCQFCRLKKCLEMGMKMESVQSERKPFDVQREKPSNCAASTEKIYIRKDLRSPLIATPTFVADKDGARQTGLLDPGMLVNIQQPLIREDGTVLLATDSKAETSQGALGTLANVVTSLANLSESLNNGDTSEIQPEDQSASEITRAFDTLAKALNTTDSSSSPSLADGIDTSGGGSIHVISRDQSTPIIEVEGPLLSDTHVTFKLTMPSPMPEYLNVHYICESASRLLFLSMHWARSIPAFQALGQDCNTSLVRACWNELFTLGLAQCAQVMSLSTILAAIVNHLQNSIQEDKLSGDRIKQVMEHIWKLQEFCNSMAKLDIDGYEYAYLKAIVLFSPDHPGLTSTSQIEKFQEKAQMELQDYVQKTYSEDTYRLARILVRLPALRLMSSNITEELFFTGLIGNVSIDSIIPYILKMETAEYNGQITGASL [NR2C2]
solubility in G1/S (log2) (HeLa Kyoto [1]): -0.109
solubility change mitosis (log2) (HeLa Kyoto [2]): 0.0297

MVAMAAGPSGCLVPAFGLRLLLATVLQAVSAFGAEFSSEACRELGFSSNLLCSSCDLLGQFNLLQLDPDCRGCCQEEAQFETKKLYAGAILEVCGUKLGRFPQVQAFVRSDKPKLFRGLQIKYVRGSDPVLKLLDDNGNIAEELSILKWNTDSVEEFLSEKLERI [SEP15]
solubility in G1/S (log2) (HeLa Kyoto [1]): 0.305
solubility change mitosis (log2) (HeLa Kyoto [2]): -0.028

MVGPGPTAAAAVEERQRKLQEYLAAKGKLKSQNTKPYLKSKNNCQNQPPSKSTIRPKNDVTNHVVLPVKPKRSISIKLQPRPPNTAGSQKPKLEPPKLLGKRLTSECVSSNPYSKPSSKSFQQCEAGSSTTGELSRKPVGSLNIEQLKTTKQQLTDQGNGKCIDFMNNIHVENESLDNFLKETNKENLLDILTEPERKPDPKLYTRSKPKTDSYNQTKNSLVPKQALGKSSVNSAVLKDRVNKQFVGETQSRTFPVKSQQLSRGADLARPGVKPSRTVPSHFIRTLSKVQSSKKPVVKNIKDIKVNRSQYERPNETKIRSYPVTEQRVKHTKPRTYPSLLQGEYNNRHPNIKQDQKSSQVCIPQTSCVLQKSKAISQRPNLTVGRFNSAIPSTPSIRPNGTSGNKHNNNGFQQKAQTLDSKLKKAVPQNHFLNKTAPKTQADVTTVNGTQTNPNIKKKATAEDRRKQLEEWQKSKGKTYKRPPMELKTKRKVIKEMNISFWKSIEKEEEEKKAQLELSSKINNTLTECLNLIEGGVPSNEILNILSSIPEAEKFAKFWICKAKLLASKGTFDVIGLYEEAIKNGATPIQELRKVVLNILQDSNRTTEGITSDSLVAETSITSVEELAKKMESVKSCLSPKEREQVTATPRIAKAEQHNYPGIKLQIGPIPRINGMPEVQDMKFITPVRRSSRIERAVSRYPEMLQEHDLVVASLDELLEVEETKCFIFRRNEALPVTLGFQTPES [CKAP2L]
solubility in G1/S (log2) (HeLa Kyoto [1]): -1.14
solubility change mitosis (log2) (HeLa Kyoto [2]): 0.95
